The values that follow come from patent publication US20230270877A1, “Combination Therapy” (Seagen Inc., priority 2020, published 2023).

One assay deals with MM1S MM cells. Put plainly: Disseminated MM xenograft survival model (MM1S). Type of assay: in vivo, SCID animals. Conditions: 0.1 mg/kg SEA-BCMA weekly x5 IP and/or 0.01 mg/kg SGN-CD48A once IP; N=8/group; FIG. 21A. The method, then: MM1S MM cells were injected IV into SCID animals, which contain active innate immune effector cells to mediate ADCP and ADCC. Seven days post implant, dosing was initiated with 0.1 mg/kg SEA-BCMA and/or 0.01 mg/kg SGN-CD48A, and animals were monitored for survival. SEA-BCMA was dosed weekly for 5 weeks IP and SGN-CD48A was dosed once IP. Animals were followed for 160 days for survival (N=8/group). By day 51, all untreated animals had been humanely euthanized according to IACUC protocols.

The next assay deals with Farage cells. Type of assay: in vivo. Conditions: single agent, SEA-CD70 3 mg/kg or SGN-35 1 mg/kg.
A further assay deals with T1, human FcγRIIb (Homo sapiens, UniProt P31994).
T1 construct: expressed in transfected cells; host or cells: CHO cells
T1 sequence (P31994 43-310): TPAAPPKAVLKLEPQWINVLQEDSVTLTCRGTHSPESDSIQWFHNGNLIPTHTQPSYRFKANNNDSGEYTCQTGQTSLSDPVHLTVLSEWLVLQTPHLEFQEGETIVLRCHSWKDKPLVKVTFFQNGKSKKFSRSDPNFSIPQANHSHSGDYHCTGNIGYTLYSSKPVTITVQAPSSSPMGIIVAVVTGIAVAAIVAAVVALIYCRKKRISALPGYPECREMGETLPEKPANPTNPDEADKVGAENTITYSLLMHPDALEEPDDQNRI
Put plainly: FcγR binding by flow cytometry on transfected CHO cells. Conditions: FIG. 11B-D. The method, then:
(§1) CHO cells were incubated with increasing concentrations of antibodies and a secondary antibody used to assess binding as monitored by flow cytometry.
(§2) For each cell line, 50 million cells were washed once in 50 mL of PBS. Cells were counted again and resuspended at 2.2 million cells/mL in BD stain buffer. Cells were plated in a 96-well round bottom plate at 0.1 mL of cells per well.
(§3) Antibody solutions were diluted to make the following final concentrations: 3 mg/mL, 1 mg/mL, 0.3 mg/mL, 0.1 mg/mL, 0.03 mg/mL, 0.01 mg/mL, 0.003 mg/mL, 0.001 mg/mL, 0.0003 mg/mL. Each antibody solution was diluted at 10×(i.e., […] of media) to produce the following concentrations: 300, 100, 30, 10, 3, 1, […] μg/ml. Media was removed from the cells and the cells were washed with media. 100 μL of antibody solution was added to each well. Antibody solutions were added with decreasing concentrations in the vertical direction. […]
(§4) Next, PE conjugated anti-human IgG Fc antibody was prepared (1/50 dilution of 1 mg/ml concentration=[…] saturating concentration) in BD stain buffer. […] Cells were resuspended in PBS+1% paraformaldehyde and kept at 4° C. until they were analyzed by flow cytometry. Samples were analyzed using the Attune flow cytometer. […]
On the technique in general: In flow cytometry, cells or beads pass a laser one at a time.

A further assay deals with T2, human FcγRIIIa (Homo sapiens, UniProt P08637).
T2 construct: expressed in transfected cells; host or cells: CHO cells
T2 sequence (P08637 17-254): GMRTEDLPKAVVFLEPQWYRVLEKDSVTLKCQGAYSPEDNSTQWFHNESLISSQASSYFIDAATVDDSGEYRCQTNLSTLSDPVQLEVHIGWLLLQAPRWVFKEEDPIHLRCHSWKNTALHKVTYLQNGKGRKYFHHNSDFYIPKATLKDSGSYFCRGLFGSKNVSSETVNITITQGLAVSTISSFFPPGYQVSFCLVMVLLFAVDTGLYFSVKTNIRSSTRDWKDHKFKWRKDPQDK
The assay is described as above. Conditions: FIG. 11B-D. The protocol: as §1, §2, §3, §4

B1: SEA-BCMA: nonfucosylated antibody targeting B-cell maturation antigen (BCMA); VH and VL of SEQ ID NOs: 45 and 46 (antibody, V domains shown)
VH: QVQLVQSGAEVKKPGASVKLSCKASGYTFTDYYIHWVRQAPGQGLEWIGYINPNSGYTNYAQKFQGRATMTADKSINTAYVELSRLRSDDTAVYFCTRYMWERVTGFFDFWGQGTMVTVSS
VL: DIQMTQSPSSVSASVGDRVTITCLASEDISDDLAWYQQKPGKAPKVLVYTTSSLQSGVPSRFSGSGSGTDFTLTISSLQPEDFATYFCQQTYKFPPTFGGGTKVEIK
modifications: nonfucosylated; SGN-BCMA heavy chain variable region; SGN-BCMA light chain variable region
Turning to B1, in the assay on MM1S MM cells, the “animals alive by day 160” value was “zero”.

B2: SEA-CD70: nonfucosylated antibody targeting the CD70 antigen; VH and VL of SEQ ID NOs: 41 and 42 (antibody, V domains shown)
VH: QVQLVQSGAEVKKPGASVKVSCKASGYTFTNYGMNWVRQAPGQGLKWMGWINTYTGEPTYADAFKGRVTMTRDTSISTAYMELSRLRSDDTAVYYCARDYGDYGMDYWGQGTTVTVSS
VL: DIVMTQSPDSLAVSLGERATINCRASKSVSTSGYSFMHWYQQKPGQPPKLLIYLASNLESGVPDRFSGSGSGTDFTLTISSLQAEDVAVYYCQHSREVPWTFGQGTKVEIK
modifications: nonfucosylated; SEA-CD70 heavy chain variable region; SGN-CD70 light chain variable region
Turning to B2, the “day at which tumors reached an average 5 fold increase of original size” value with Farage cells (day post implant, untreated 28.5) was 34.5 days. In addition, in the assay on Farage cells (untreated 9.5), the “days post treatment at which tumors reached an average 5 fold increase” value turned out to be 15.5 days post treatment.

B3: SEA-CD40: nonfucosylated, humanized version of murine S2C6 anti-CD40; VH and VL of SEQ ID NOs: 28 and 29 (antibody, V domains shown)
VH: EVQLVESGGGLVQPGGSLRLSCAASGYSFTGYYIHWVRQAPGKGLEWVARVIPNAGGTSYNQKFKGRFTLSVDNSKNTAYLQMNSLRAEDTAVYYCAREGIYWWGQGTLVTVSS
VL: DIQMTQSPSSLSASVGDRVTITCRSSQSLVHSNGNTFLHWYQQKPGKAPKLLIYTVSNRFSGVPSRFSGSGSGTDFTLTISSLQPEDFATYFCSQTTHVPWTFGQGTKVEIK
modifications: nonfucosylated; VH of SEA-CD40; VL of SEA-CD40
As to B3, the “affinity for FcγRIIb (rank among CD40 antibodies tested)” value with human FcγRIIb is “lowest affinity”. Further, the “affinity for FcγRIIIa (rank among CD40 antibodies tested)” value with human FcγRIIIa was “highest affinity”.
